One assay concerns the target HP1β (Homo sapiens) (UniProt P83916). Conditions: cited from earlier work.
Assay [1] concerns the target H3K9me3 oligonucleosomes (12-mer oligonucleosomal arrays) (Xenopus laevis). Nature of the assay: co-sedimentation; chromatin coprecipitation with oligonucleosomes reconstituted to different saturation (0.8:1.0, 1.0:1.0, 1.0:1.2 octamers to positioning sequences); saturating protein concentrations; Coomassie bands quantified in relation to input.
Assay [2] has as its target free H3K9me3 tail peptide. Nature of the assay: ITC; 1.8 mM hHP1β injected into 60 μM H3 peptides, nucleosomes or oligonucleosomal arrays; 25°C; 10 mM triethanolamine pH 7.5, 150 mM NaCl, 0.1 mM EDTA; apparent; one set of identical sites.
In assay [3] the target is H3K9me3 mononucleosome (Xenopus laevis). In words: SPR; biotinylated ligands on streptavidin (SA) chips, hHP1β proteins injected; 298 K; 10 mM triethanolamine pH 7.5, 150 mM NaCl, 0.1 mM EDTA, 1 mM DTT, 0.005% Tween-20; steady-state analysis; apparent.
Assay [4] concerns the target H3K9me3 oligonucleosomes (12-mer oligonucleosomal arrays) (Xenopus laevis).
Assay [5] deals with H3KC9me3 tail peptide. Nature of the assay: ITC; 1.8 mM hHP1β injected into 60 μM H3 peptides, nucleosomes or oligonucleosomal arrays; 25°C; 10 mM triethanolamine pH 7.5, 150 mM NaCl, 0.1 mM EDTA; apparent; one set of identical sites.
The target in assay [6] is H3KC9me3 oligonucleosomes (12-mer oligonucleosomal arrays) (Xenopus laevis). Described as above.
The target in assay [7] is H3KC9me3 mononucleosome (Xenopus laevis). Described as above.
Assay [8] concerns the target H3KC9me3 tail peptide. Nature of the assay: ITC; 1.8 mM hHP1β injected into 60 μM H3 peptides, nucleosomes or oligonucleosomal arrays; 25°C; 10 mM triethanolamine pH 7.5, 20 mM NaCl, 0.1 mM EDTA; apparent; one set of identical sites.
The target in assay [9] is free H3K9me3 tail peptide. The description is as above.
In assay [10] the target is H3KC9me3 mononucleosome (Xenopus laevis). Described as above.

The text below walks through data of article PMC4838890, “Dynamic and flexible H3K9me3 bridging via HP1β dimerization establishes a plastic state of condensed chromatin” (Nature Communications, 2016).

Sequence of human HP1β wild type (hHP1β WT) (P83916 whole entry): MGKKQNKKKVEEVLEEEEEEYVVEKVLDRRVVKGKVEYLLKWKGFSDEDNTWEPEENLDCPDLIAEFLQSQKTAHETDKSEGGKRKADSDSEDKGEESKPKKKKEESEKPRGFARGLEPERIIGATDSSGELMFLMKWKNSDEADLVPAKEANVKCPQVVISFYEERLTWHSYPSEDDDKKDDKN
Sequence of Swi6 (P40381 whole entry): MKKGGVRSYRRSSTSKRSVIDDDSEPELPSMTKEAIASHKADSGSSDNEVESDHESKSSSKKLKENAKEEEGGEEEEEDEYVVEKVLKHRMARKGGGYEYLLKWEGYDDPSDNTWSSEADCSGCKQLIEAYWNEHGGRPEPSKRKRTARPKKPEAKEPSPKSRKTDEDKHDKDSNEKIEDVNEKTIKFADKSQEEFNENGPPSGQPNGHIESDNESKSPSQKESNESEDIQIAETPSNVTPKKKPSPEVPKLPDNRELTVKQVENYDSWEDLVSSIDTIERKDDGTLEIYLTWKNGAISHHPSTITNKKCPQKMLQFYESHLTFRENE
Sequence of HP1β (P83916 whole entry): as the sequence (P83916 whole entry) above

For the substance HP1β (from UniProt P83916), the Kd with HP1β (Homo sapiens) is less than 0.001 µM.
As for “Swi6 (from UniProt P40381 1-328) (natural protein)”, the stoichiometry N (molecules per nucleosome) in assay [1] turned out to be 4.
Consider “hHP1β chromo domain (CD) (domain or fragment)”, for which, in assay [2], the stoichiometry N is 1.1.
“human HP1β wild type (hHP1β WT) (from UniProt P83916 1-185) (natural protein)”: the Kd in [3] amounted to 1 µM; with H3KC9me3 tail peptide [5] it was 21 µM; in assay [6] it was 11 µM; in assay [7] it was 22 µM; in the assay with H3KC9me3 tail peptide [8], 11 µM; in [9], 1.4 µM. The Kd in assay [10] was determined as 59 µM. In assay [4], this substance came in with a half-maximal effect in the chromatin precipitation (sedimentation) assay, 150 mM NaCl, 4°C of 0.4 µM. In addition, the half-maximal effect on the hydrodynamic radius of oligonucleosomes by FCS, 150 mM NaCl, 23°C in [4] is 3.5 µM. In addition, the stoichiometry N was determined as 1 with H3KC9me3 tail peptide [5]; 1 in assay [2]; 1.9 in [6]; 1.4 in assay [7]; 1 with H3KC9me3 tail peptide [8]; 0.9 in [9]. The stoichiometry N in assay [10] was 2.1. The substance also registered a stoichiometry N (molecules per nucleosome) in assay [1] of 2.
“hHP1β I161A (from UniProt P83916 1-185) (natural protein)”: the Kd is 5.2 µM in assay [3]; 3.4 µM in assay [2]; 132 µM in [6]; 58 µM in [7]; 1.1 µM in assay [9]; 223 µM in assay [10]. Besides, the stoichiometry N worked out at 0.9 in assay [2]; 1.1 in [6]; 1.2 in assay [7]; 1 in assay [9]; 1.1 in assay [10].
